According to US20100204100A1, “BIOLOGICAL AGENTS ACTIVE IN CENTRAL NERVOUS SYSTEM” (THE JOHNS HOPKINS UNIVERISTY, priority 2007, published 2010):
“Also recorded” adds a separate entry of the source.

B1: Tat-PSD-95 PDZ2: His-tagged fusion peptide: HIV Tat minimal transduction domain (residues 47-57) fused to the second PDZ domain of PSD-95 (protein)
chain: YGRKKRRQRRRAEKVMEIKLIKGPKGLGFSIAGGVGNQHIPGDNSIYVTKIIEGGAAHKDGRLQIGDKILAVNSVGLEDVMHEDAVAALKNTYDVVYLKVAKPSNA
B2: mutated Tat-PSD-95 PDZ2: Control fusion peptide: Tat-PSD-95 PDZ2 with three sites critical for NMDAR/PSD-95 interaction mutated (K165T, L170R and H182L) (protein)
chain: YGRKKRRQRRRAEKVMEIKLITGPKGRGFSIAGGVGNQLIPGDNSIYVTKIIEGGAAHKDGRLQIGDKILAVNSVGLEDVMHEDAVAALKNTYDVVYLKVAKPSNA
B3: PSD-95 PDZ2: Control peptide containing the same sequences as Tat-PSD-95 PDZ2 but without Tat PTD (protein)
chain: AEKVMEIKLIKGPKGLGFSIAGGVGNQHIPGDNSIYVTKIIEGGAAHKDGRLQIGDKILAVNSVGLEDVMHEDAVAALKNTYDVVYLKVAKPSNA

What was measured:
[1] = system: CFA-induced inflammatory pain behaviors; assay: CFA-induced inflammatory pain behaviors, paw withdrawal threshold (von Frey filaments); assay type: in vivo, mouse; details: vs vehicle
Procedure: Intrathecal Injection of Tat Fusion Peptides. Intrathecal injection was performed in unanesthetized mice as previously described (Hylden and Wilcox, 1980; Tao, et al., 2003b; Tao, et al., 2004). In brief, the mouse was held firmly by the pelvic girdle in one hand, while a 10-μl Luer tip syringe with a 30 gauge 0.5-inch needle was held in the other hand at an angle of about 20° above the vertebral column. The needle was inserted into the tissue to one side of the L5 or L6 spinous process so that it slipped into the groove between the spinous and transverse processes. The needle was then moved carefully forward to the intervertebral space as the angle of the syringe was decreased to about 10°. […] The injection volume was 5 μl. The mice, assigned randomly to the experimental groups of 6-8, were given intrathecally Tat-PSD-95 PDZ2 or control peptide (mutated Tat-PSD-95 PDZ2 or PSD-95 PDZ2 without Tat PTD) 30 min before behavioral testing. Behavioral Analysis. Mechanical sensitivity of the mice was measured with von Frey filaments (Stoelting, Wood Dale, Ill.) as described previously (Yang and Gereau, 2003). Mice were placed in Plexiglas testing boxes with a 1×1 cm^2 wire-mesh grid floor and habituated for 3 h before experiments. Each von Frey filament was applied to the mouse hind paw in ascending order until it bent at approximately 30° for about 3 s. The smallest filament that evoked a paw withdrawal response was taken as the mechanical threshold (paw withdrawal threshold). Similar sites were selected for measuring mechanical thresholds in all tested animals, and the thresholds were measured at approximately the same site throughout the experiment for each individual animal. Two to three measurements were made before CFA or fusion peptides injection, and the average was calculated as the baseline. Established inflammatory pain behaviors were induced by intraplantar injection of CFA solution (20 μl, 1 mg/ml). To observe the effect of Tat-PSD-95 PDZ2 on the development of CFA-induced established inflammatory pain, the mice were given intraperitoneally Tat-PSD-95 PDZ2 or control peptide (mutated Tat-PSD-95 PDZ2 or PSD-95 PDZ2 without Tat) 2 h before CFA injection or intrathecally these peptides 1.5 h after CFA injection (development protocol); on the other hand, to observe the effect of Tat-PSD-95 PDZ2 on the maintenance of CFA-induced established inflammatory pain, the mice were given intraperitoneally these peptides 20 h after CFA injection or intrathecally these peptides 23.5 h after CFA injection (maintenance protocol). Behavioral measurements were conducted 2 h after CFA injection for the “development protocol” and 24 h after CFA injection for the “maintenance protocol”. The effect of Tat fusion peptide on CFA-induced established inflammatory pain behaviors was expressed as % of baseline.

[2] = system: interaction between NR2A/2B and PSD-95; assay: In vivo binding assay (co-immunoprecipitation) from spinal cord homogenates of treated mice; design: species or system mouse; details: 8 mg/kg intraperitoneal
Procedure: In Vitro and In Vivo Binding Assays. […] Membrane-bound proteins from the spinal lumbar enlargement segments were extracted as described previously (Tao, et al., 2003a). For in vitro binding experiments (GST pull-down), the solubilized membrane fraction and GST fusion peptide were first preincubated with different concentrations of Tat-PSD-95 PDZ2 at room temperature for 30 min. Then the membrane fraction was mixed with the GST fusion peptide at room temperature for 1 h. The resin was washed five times with washing buffer (PBS plus 500 mM NaCl and 0.1% Triton X-100) and then boiled in 1×SDS-PAGE sample buffer to elute the bound proteins. After being separated by electrophoresis, the proteins were detected by immunoblotting with anti-GST antibody (Santa Cruz Biotechnology, Santa Cruz, Calif.) and anti-NR2B antibody (Upstate Biotechnology, Lake Placid, N.Y.). For in vivo binding experiments (co-immunoprecipitation), 5 μg of the affinity-purified rabbit NR2A/2B antibody (Chemicon, Temecula, Calif.) was incubated with 100 μl of protein A-Sepharose slurry for 1 h, and the complex was spun down at 2000 rpm for 4 min. The solubilized membrane fraction (500 μg) from the different groups of treated mice as mentioned-above then was added to the Sepharose beads, and the mixture was incubated for 2-3 h at 4° C. The mixture was washed once with 1% Triton X-100 in immunoprecipitation buffer [containing (in mM): 137 sodium chloride, 2.7 potassium chloride, 4.3 disodium hydrogen phosphate, 1.4 potassium dihydrogen phosphate, 5 ethylene glycol tetraacetic acid, 1 sodium vanadate, 10 sodium pyrophosphate, 50 sodium fluoride, 0.1 phenylmethylsulfonyl fluoride, and 20 U/ml Trasylol], twice with 1% Triton X-100 in immunoprecipitation buffer plus 300 mM sodium chloride, and three times with immunoprecipitation buffer. The proteins were separated by SDS-PAGE and detected by NR2A/2B or PSD-95 antibody (Upstate Biotechnology, Lake Placid, N.Y.). As a positive control (input), 50 μg of the solubilized membrane fraction was loaded onto the gel. […]

[3] = system: threshold for halothane anesthesia; assay: Determination of halothane RREC50 (righting reflex); assay type: in vivo, mouse; details: mice; for halothane RREC50: mean±S.E.M., vehicle 0.48±0.02; for effect on halothane RREC50: intraperitoneal injection, dose series
Procedure: The purified fusion peptides at the indicated amounts were injected intraperitoneally into mice in 300 μl of phosphate-buffered saline and 10% glycerol. The mice were given Tat-PSD-95 PDZ2 or control peptide (mutated Tat-PSD-95 PDZ2 or PSD-95 PDZ2 without Tat) 4 h before MAC measurement and righting reflex testing. All the animals were assigned randomly to experimental groups consisting of 6-8 animals each. Western blot analysis was then used to verify the CNS delivery of these fusion peptides after intraperitoneal injection. Following the measurement of MAC, the halothane concentration was halved for 10 min and the animal turned on its back to test the righting reflex defined as a return onto all four paws within 1 min^20-22. […] RREC50 was calculated for each mouse as the mean value of the anesthetic concentrations that just permitted and just prevented the righting reflex.

[4] = intraperitoneal, Tat-PSD-95 PDZ2 2, 4, 8 mg/kg, control peptides 8 mg/kg, development and maintenance phases
[5] = intrathecal, Tat-PSD-95 PDZ2 2.5, 5, 10 μg/5 μl, control peptides 10 μg/5 μl

| Molecule | effect on CFA-induced decrease of paw withdrawal threshold, ipsilateral side [1, 4] | effect on CFA-induced decrease of paw withdrawal threshold, ipsilateral side [1, 5] | effect on interaction between NR2A/2B and PSD-95, co-immunoprecipitation [2] | halothane RREC50 ([3]; 2 mg/kg intraperitoneal) | halothane RREC50 ([3]; 4 mg/kg intraperitoneal) | halothane RREC50 ([3]; 8 mg/kg intraperitoneal) | effect on halothane RREC50 [3] | effect on halothane RREC50 compared to vehicle-treated group ([3]; two higher doses (4 and 8 mg/kg) intraperitoneal) | effect on halothane RREC50 compared to vehicle-treated group ([3]; 8 mg/kg intraperitoneal) |
| --- | --- | --- | --- | --- | --- | --- | --- | --- | --- |
| B1 | significantly inhibited; also recorded: dose-dependently inhibited | significantly inhibited; also recorded: dose-dependently inhibited | markedly disrupted; also recorded: markedly blocked | 0.45±0.03 | 0.37±0.03 | 0.18±0.02 | dose-dependently reduced | significantly reduced | – |
| B2 | no effect | no effect | no effect; also recorded: neither mutated Tat-PSD-95 PDZ2 (8 mg/kg) nor PSD-95 PDZ2 (8 mg/kg) had an effect | – | – | – | no effect | – | no effect |
| B3 | no effect | no effect | neither mutated Tat-PSD-95 PDZ2 (8 mg/kg) nor PSD-95 PDZ2 (8 mg/kg) had an effect | – | – | – | no effect | – | no effect |
